Data reported in article PMC4447340.

Biological target: Cyclophilin J (human) (UniProt Q9H2H8)
UniProt Q9H2H8, sequence (Q9H2H8 whole entry): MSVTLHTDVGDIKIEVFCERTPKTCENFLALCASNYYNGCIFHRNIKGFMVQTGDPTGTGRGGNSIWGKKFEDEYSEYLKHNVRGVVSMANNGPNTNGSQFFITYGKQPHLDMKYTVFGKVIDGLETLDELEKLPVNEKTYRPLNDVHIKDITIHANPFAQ

Substance: Cyclosporin A (peptide)
- inhibition of the PPIase activity of CYPJ (chymotrypsin-coupled assay, 13.1 μM CYPJ, 1-16 μM CsA): 12 µM
